One molecule from PMC4175184, “Structure and function of cohesin’s Scc3/SA regulatory subunit” (Febs Letters, 2014) can be followed below.

This test addresses T1, S. cerevisiae Scc3, full-length protein (S. cerevisiae, UniProt P40541 1-1150).
T1 construct: Scc3, S. cerevisiae (UniProt SCC3_YEAST, P40541), full-length / intact protein; also called Sc Scc3; intact Scc3 protein; source: E. coli BL21(DE3) RIPL, purified (Talon beads, Superdex 200)
T1 sequence (looked up): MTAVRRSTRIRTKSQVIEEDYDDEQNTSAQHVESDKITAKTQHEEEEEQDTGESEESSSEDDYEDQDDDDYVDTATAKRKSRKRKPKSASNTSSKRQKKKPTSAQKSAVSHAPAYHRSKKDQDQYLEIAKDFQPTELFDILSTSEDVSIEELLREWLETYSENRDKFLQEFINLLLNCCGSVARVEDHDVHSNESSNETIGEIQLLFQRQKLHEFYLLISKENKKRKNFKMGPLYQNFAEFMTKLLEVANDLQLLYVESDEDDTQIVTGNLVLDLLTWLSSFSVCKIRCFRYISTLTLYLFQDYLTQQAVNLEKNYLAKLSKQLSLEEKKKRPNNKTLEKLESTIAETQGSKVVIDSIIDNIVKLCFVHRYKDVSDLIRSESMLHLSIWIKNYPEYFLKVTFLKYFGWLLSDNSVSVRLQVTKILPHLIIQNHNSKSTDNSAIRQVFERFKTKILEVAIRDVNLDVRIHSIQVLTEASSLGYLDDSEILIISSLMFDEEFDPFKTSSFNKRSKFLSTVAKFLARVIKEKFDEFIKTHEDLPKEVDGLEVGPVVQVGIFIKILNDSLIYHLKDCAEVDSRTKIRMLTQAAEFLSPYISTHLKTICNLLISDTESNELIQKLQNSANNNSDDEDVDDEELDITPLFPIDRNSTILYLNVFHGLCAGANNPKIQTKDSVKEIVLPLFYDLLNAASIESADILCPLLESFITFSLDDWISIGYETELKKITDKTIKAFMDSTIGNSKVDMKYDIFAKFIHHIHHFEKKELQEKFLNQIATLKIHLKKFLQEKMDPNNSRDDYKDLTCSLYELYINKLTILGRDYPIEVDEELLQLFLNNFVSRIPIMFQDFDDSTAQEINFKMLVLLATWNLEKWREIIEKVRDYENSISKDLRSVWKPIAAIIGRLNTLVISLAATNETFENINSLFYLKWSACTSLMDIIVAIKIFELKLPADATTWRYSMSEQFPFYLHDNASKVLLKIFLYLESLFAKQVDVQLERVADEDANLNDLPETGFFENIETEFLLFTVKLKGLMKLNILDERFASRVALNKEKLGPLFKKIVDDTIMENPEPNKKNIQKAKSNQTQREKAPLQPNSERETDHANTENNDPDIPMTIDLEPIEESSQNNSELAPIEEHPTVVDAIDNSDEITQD
In words: pull-down; two differently tagged versions of Scc1 (259–451) in the presence of intact Scc3 protein; 5 μM of each in TAP buffer, resin 2 h at 4 °C (Fig. 2-fig^1C). The settings on record: both partners purified.

B1: S. cerevisiae Scc1 (259–451), two differently tagged versions (domain or fragment, UniProt Q12158 259-451, looked up)
chain: DDDNSVEQGRRLGESIMSEEPTDFGFDLDIEKEAPAGNIDTITDAMTESQPKQTGTRRNSKLLNTKSIQIDEETENSESIASSNTYKEERSNNLLTPQPTNFTTKRLWSEITESMSYLPDPILKNFLSYESLKKRKIHNGREGSIEEPELNVSLNLTDDVISNAGTNDNSFNELTDNMSDFVPIDAGLNEAPF
notes: source: E. coli BL21(DE3) RIPL, purified (Talon beads, Superdex 200)
Take B1: the binding result is on record as “binds”.
